Laboratory results as given in patent US11708423B2, “Chimeric engulfment receptor molecules and methods of use” (CERO THERAPEUTICS, INC., priority 2017, dated 2023).

B1: CER126: Tim4 binding and transmembrane domains, TLR2 primary and TRAF2 secondary signaling domains; SEQ ID NO:174 (protein)
chain: MSKGLLLLWLVTELWWLYLTPAASEDTIIGFLGQPVTLPCHYLSWSQSRNSMCWGKGSCPNSKCNAELLRTDGTRIISRKSTKYTLLGKVQFGEVSLTISNTNRGDSGVYCCRIEVPGWFNDVKKNVRLELRRATTTKKPTTTTRPTTTPYVTTTTPELLPTTVMTTSVLPTTTPPQTLATTAFSTAVTTCPSTTPGSFSQETTKGSAFTTESETLPASNHSQRSMMTISTDIAVLRPTGSNPGILPSTSQLTTQKTTLTTSESLQKTTKSHQINSRQTILIIACCVGFVLMVLLFLAFLHRFHGLWYMKMMWAWLQAKRKPRKAPSRNICYDAFVSYSERDAYWVENLMVQELENFNPPFKLCLHKRDFIPGKWIIDNIIDSIEKSHKTVFVLSENFVKSEWCKYELDFSHFRLFDENNDAAILILLEPIEKKAIPQRFCKLRKIMNTKTYLEWPMDEAQREGFWVNLRAAIKSMAAASVTPPGSLELLQPGFSKTLLGTKLEAKYLCSACRNVLRRPFQAQCGHRYCSFCLASILSSGPQNCAACVHEGIYEEGISILESSSAFPDNAARREVESLPAVCPSDGCTWKGTLKEYESCHEGRCPLMLTECPACKGLVRLGEKERHLEHECPERSLSCRHCRAPCCGADVKAHHEVCPKFPLTCDGCGKKKIPREKFQDHVKTCGKCRVPCRFHAIGCLETVEGEKQQEHEVQWLREHLAMLLSSVLEAKPLLGDQSHAGSELLQRCESLEKKTATFENIVCVLNREVERVAMTAEAC
modifications: CER126 protein
B2: CER123: Tim4 binding and transmembrane domains, TLR2 primary and TRAF6 secondary signaling domains; SEQ ID NO:150 (protein)
chain: MSKGLLLLWLVTELWWLYLTPAASEDTIIGFLGQPVTLPCHYLSWSQSRNSMCWGKGSCPNSKCNAELLRTDGTRIISRKSTKYTLLGKVQFGEVSLTISNTNRGDSGVYCCRIEVPGWFNDVKKNVRLELRRATTTKKPTTTTRPTTTPYVTTTTPELLPTTVMTTSVLPTTTPPQTLATTAFSTAVTTCPSTTPGSFSQETTKGSAFTTESETLPASNHSQRSMMTISTDIAVLRPTGSNPGILPSTSQLTTQKTTLTTSESLQKTTKSHQINSRQTILIIACCVGFVLMVLLFLAFLHRFHGLWYMKMMWAWLQAKRKPRKAPSRNICYDAFVSYSERDAYWVENLMVQELENFNPPFKLCLHKRDFIPGKWIIDNIIDSIEKSHKTVFVLSENFVKSEWCKYELDFSHFRLFDENNDAAILILLEPIEKKAIPQRFCKLRKIMNTKTYLEWPMDEAQREGFWVNLRAAIKSMSLLNCENSCGSSQSESDCCVAMASSCSAVTKDDSVGGTASTGNLSSSFMEEIQGYDVEFDPPLESKYECPICLMALREAVQTPCGHRFCKACIIKSIRDAGHKCPVDNEILLENQLFPDNFAKREILSLMVKCPNEGCLHKMELRHLEDHQAHCEFALMDCPQCQRPFQKFHINIHILKDCPRRQVSCDNCAASMAFEDKEIHDQNCPLANVICEYCNTILIREQMPNHYDLDCPTAPIPCTFSTFGCHEKMQRNHLARHLQENTQSHMRMLA
modifications: CER123 protein

Test system: H1975 lung adenocarcinoma cells
Experiment: LDH assay, H1975 cells, 48 hours co-culture with 1 μM Osimeritinib
Assay type: cell-based
Settings: E:T 1:1, 48 hours, CD4+ T cells
Description: CER30 comprises a Tim4 binding domain, Tim4 transmembrane domain, and an engulfment signaling domain comprising a primary engulfment signaling domain comprising a TRAF2 signaling domain. CER30 has a polypeptide sequence as set forth in SEQ ID NO:96. CER110 has a polypeptide sequence of SEQ ID NO:125 and comprises a Tim4 binding domain, Tim4 transmembrane domain, and an engulfment signaling domain comprising a primary engulfment signaling domain comprising a TRAF6 signaling domain and a secondary engulfment signaling domain comprising a DAP12 signaling domain. CER112 has a polypeptide sequence of SEQ ID NO:128 and comprises a Tim4 binding domain, Tim4 transmembrane domain, and an engulfment signaling domain comprising a primary engulfment signaling domain comprising a TRAF6 signaling domain and a secondary engulfment signaling domain comprising a NFAM1 signaling domain. CER127 has a polypeptide sequence of SEQ ID NO:175 and comprises a Tim4 binding domain, Tim4 transmembrane domain, and an engulfment signaling domain comprising a primary engulfment signaling domain comprising a TRAF2 signaling domain and a secondary engulfment signaling domain comprising a TLR2 signaling domain. H1975 cells are more resistant to EGFR inhibitors, so Osimeritinib was used at slightly higher concentration. H1975 lung adenocarcinoma cells harboring an EGFR mutation were co-cultured with CER-expressing or mock-transduced (vector only) CD4+ T cells with 1 μM of Osimeritinib. After 48 hours of co-culture at a 1:1 effector:target cell ratio, T cells were washed away, and the number of viable H1975 cells was quantified using a calorimetric LDH assay (FIG. 57). Cell viability experiments were performed in triplicate and presented as % of control.

| Molecule | killing of H1975 cells (LDH) |
| --- | --- |
| B1 | synergistic killing of H1975 lung adenocarcinoma cells upon EGFR inhibition |
| B2 | synergistic killing of H1975 lung adenocarcinoma cells upon EGFR inhibition |
